Target: T1, activated matriptase (human, UniProt Q9Y5Y6 1-855)
T1 sequence (looked up): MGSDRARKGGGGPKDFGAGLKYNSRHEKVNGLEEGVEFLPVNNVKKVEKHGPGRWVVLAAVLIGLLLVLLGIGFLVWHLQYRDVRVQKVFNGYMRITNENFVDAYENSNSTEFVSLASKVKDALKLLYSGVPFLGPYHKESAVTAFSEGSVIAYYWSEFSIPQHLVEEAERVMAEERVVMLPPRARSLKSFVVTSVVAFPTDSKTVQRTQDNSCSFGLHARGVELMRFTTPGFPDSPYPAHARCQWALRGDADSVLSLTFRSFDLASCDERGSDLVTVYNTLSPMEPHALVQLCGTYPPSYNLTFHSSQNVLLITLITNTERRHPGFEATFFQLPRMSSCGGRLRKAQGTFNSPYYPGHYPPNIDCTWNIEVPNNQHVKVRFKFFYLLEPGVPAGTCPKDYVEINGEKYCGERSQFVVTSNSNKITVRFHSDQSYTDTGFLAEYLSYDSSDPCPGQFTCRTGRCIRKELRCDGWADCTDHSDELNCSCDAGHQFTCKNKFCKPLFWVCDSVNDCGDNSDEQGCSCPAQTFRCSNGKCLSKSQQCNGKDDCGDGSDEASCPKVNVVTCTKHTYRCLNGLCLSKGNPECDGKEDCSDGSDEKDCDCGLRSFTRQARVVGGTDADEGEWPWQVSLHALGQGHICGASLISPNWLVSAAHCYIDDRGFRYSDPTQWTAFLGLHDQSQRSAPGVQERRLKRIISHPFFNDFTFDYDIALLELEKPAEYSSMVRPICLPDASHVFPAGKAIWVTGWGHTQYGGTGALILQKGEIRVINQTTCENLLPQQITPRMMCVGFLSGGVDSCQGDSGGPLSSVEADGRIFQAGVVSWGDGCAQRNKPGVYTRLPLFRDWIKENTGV
Experiment: cell-based or functional assay

B1: M17-DOX (monoclonal antibody M17 against activated matriptase conjugated to doxorubicin) (antibody, V domains shown)
VH: EVKLVESGGGLVQPGGSRKLSCAASGFTFSSFGMHWVRQAPEKGLEWVAYISSGSSTLHYADTVKGRFTISRDNPENTLLLMKLPSLCYGLLGSRNLSPRVLQ
VL: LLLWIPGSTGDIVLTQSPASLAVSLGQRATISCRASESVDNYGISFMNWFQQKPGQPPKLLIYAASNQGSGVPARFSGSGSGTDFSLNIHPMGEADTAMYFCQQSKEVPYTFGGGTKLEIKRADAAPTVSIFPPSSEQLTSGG
modifications: doxorubicin coupled via thioether bond formed by the SMCC reaction; sites not stated
**Q.** With B1 as the binder, how does the “IC50, MTS cell proliferation (cytotoxicity) assay, breast cancer cells MDA-MB468” value read?
**A.** The value was 0.65 µg/mL.

— patent US20150250895A1 (GEORGETOWN UNIVERSITY, published 2015)
